For test [1], the target named is microtubules (bovine tubulin, Taxol-stabilised) (bovine) (UniProt Q6B856). The test is described as follows: optical trapping, unloaded single molecule bead assay with video tracking.
Test [2] addresses subtilisin-digested microtubules (E-hook removed) (bovine) (UniProt Q6B856). The test is described as follows: optical trapping, rupture assay.
Test [3] deals with microtubules (bovine tubulin, Taxol-stabilised) (bovine) (UniProt Q6B856). The test is described as follows: optical trapping, rupture assay.

UniProt Q6B856, sequence (Q6B856 whole entry, looked up): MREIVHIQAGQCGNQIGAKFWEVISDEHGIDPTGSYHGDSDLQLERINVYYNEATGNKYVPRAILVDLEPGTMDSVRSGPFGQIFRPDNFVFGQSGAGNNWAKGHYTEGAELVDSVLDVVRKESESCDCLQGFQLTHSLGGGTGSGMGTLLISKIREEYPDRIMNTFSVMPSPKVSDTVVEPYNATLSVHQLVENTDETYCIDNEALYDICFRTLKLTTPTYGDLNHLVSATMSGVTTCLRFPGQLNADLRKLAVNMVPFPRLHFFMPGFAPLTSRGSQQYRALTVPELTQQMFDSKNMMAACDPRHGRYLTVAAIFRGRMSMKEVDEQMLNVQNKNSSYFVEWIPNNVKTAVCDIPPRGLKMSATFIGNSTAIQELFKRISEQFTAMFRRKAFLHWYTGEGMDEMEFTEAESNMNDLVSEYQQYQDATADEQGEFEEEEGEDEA

B1: FL-HSET (full-length kinesin-14 HSET/KIFC1) (natural protein)
chain: MDPQRSPLLEVKGNIELKRPLIKAPSQLPLSGSRLKRRPDQMEDGLEPEKKRTRGLGATTKITTSHPRVPSLTTVPQTQGQTTAQKVSKKTGPRCSTAIATGLKNQKPVPAVPVQKSGTSGVPPMAGGKKPSKRPAWDLKGQLCDLNAELKRCRERTQTLDQENQQLQDQLRDAQQQVKALGTERTTLEGHLAKVQAQAEQGQQELKNLRACVLELEERLSTQEGLVQELQKKQVELQEERRGLMSQLEEKERRLQTSEAALSSSQAEVASLRQETVAQAALLTEREERLHGLEMERRRLHNQLQELKGNIRVFCRVRPVLPGEPTPPPGLLLFPSGPGGPSDPPTRLSLSRSDERRGTLSGAPAPPTRHDFSFDRVFPPGSGQDEVFEEIAMLVQSALDGYPVCIFAYGQTGSGKTFTMEGGPGGDPQLEGLIPRALRHLFSVAQELSGQGWTYSFVASYVEIYNETVRDLLATGTRKGQGGECEIRRAGPGSEELTVTNARYVPVSCEKEVDALLHLARQNRAVARTAQNERSSRSHSVFQLQISGEHSSRGLQCGAPLSLVDLAGSERLDPGLALGPGERERLRETQAINSSLSTLGLVIMALSNKESHVPYRNSKLTYLLQNSLGGSAKMLMFVNISPLEENVSESLNSLRFASKVNQCVIGTAQANRK
On to B1, for which, in test [1], the percent of beads binding came to 11%.

B2: HSET-ΔM (no motor; EGFP-HSET aa 1-304, tail-stalk) (domain or fragment)
chain: MDPQRSPLLEVKGNIELKRPLIKAPSQLPLSGSRLKRRPDQMEDGLEPEKKRTRGLGATTKITTSHPRVPSLTTVPQTQGQTTAQKVSKKTGPRCSTAIATGLKNQKPVPAVPVQKSGTSGVPPMAGGKKPSKRPAWDLKGQLCDLNAELKRCRERTQTLDQENQQLQDQLRDAQQQVKALGTERTTLEGHLAKVQAQAEQGQQELKNLRACVLELEERLSTQEGLVQELQKKQVELQEERRGLMSQLEEKERRLQTSEAALSSSQAEVASLRQETVAQAALLTEREERLHGLEMERRRLHNQL
In test [2], B2 came in with a bond lifetime (single Gaussian) of 0.22 s. In test [3], this molecule came in with a bond lifetime (double Gaussian, first population) of 0.29 s; a bond lifetime (double Gaussian, second population) of 1 s; a force at rupture (first population) of 2.1 pN; a force at rupture (second population) of 5.6 pN. The same molecule had a lifetime time constant k^-1 (single exponential fit) in test [3] of 0.23 s.
